From the DeepSol protein solubility set

Assay: soluble on expression in E. coli; label from the status in PepcDB or PDB records

Sequence | soluble on expression in E. coli
SLFIDAHNHLDFFEEQEKLNKALDIIKNDNIITLGCSMDTKSYKFTKSLALKNKNIIPCFGIHPSRAHENFKNLECFDEYIRESKIIGEIGLDYVWVKEKEKYPHMKRVFTYFLEEAKKYNKITNIHTKGAESEIYNYIKKYELKTPIIHWYSGDKDTLKKLLDYGCYFTISVDIGYSKLSKEIVQLLPIDKILTETDGPTSLEWVNGDYGYPNVIKNVVKEISKIKNIQEEEVKGVIENNFKTLIRKEGITL | not soluble
MKGGLLVDDEFIHGAARSLTVRKTSLFFAGDGFTVYDCKGSLVFRVDSYGGPNTRDTDEVVLMDAHGRCLLTLRRKRPSLRRRWEGYLGERSDGQKPIFGVRRSSIIGRNSVTVEVYGDYQCSEYLIEGSFGARNCTVVEAETRRKVAEIRRKVDASTNVMLGKDVFSLNVKPGFDGAFAMGLVLVLDQIYGDDLLEVGEEQVHPSAEDL | soluble
MGNLCSTSKNEAEPFSRPGRVLGSAANPPPNAAPRAPLPAKSKAPFKSPGRSLGEAAPEVPGAERADARTNAAIAAQVSDTVERSGAALVCGRWLTGECQKRAESAAKAQKGKLGSKLAAQKAQTQAKTLSEVSREQISARHMDESSEARRWN | not soluble
MGSDKIHHHHHHMPYDSTDREIMRFLQGDIPLESRPYKNLAERLELSEEEIVLRVKKLREKGFLRRMGAVLRHRQAGFAVNAMVAWKLENEEQADRAGKIMAGYKEISHCYIREVPPDFDYSIFSMIHVKNEERLAEIIEEISLQTGIGKYIIIRSSRELKKESMQYF | not soluble
MAHHHHHHMRGKGHKRLAARSFQQWQKLHYNALCDRQMPTPLHATLRLPVRRVAHQPSSCPSAPASVDMQLTTNSSAVLQWWQREYDPFLLGCDASAHRTAGPTPPATTATHVLASTRVSAHVGPPAPPLGYPDYIAIEATQHTEGVLRGETYAYHHAAAVGAVPAPPPGAAYPSPVKWIQQPLLDGFVAQRLTAHIGVTTGSLLDTRRTAMALGRQLPPVELSPFYAASALLDRWCLFGEAAAVVPSMPASSGATLDGTQQSQRPHDAAAHHLRIAELALGAGLLSNYRAVWLNGAVLSHPGTARSVLVVGPRRSGKTTLALHCLSAAAMQASSSASGDGGVRLTAAEHFFLAAGMPVRRMLDPASTRLTSPTIFACSLPHHITVGLGAVLGTLRPNPGLAAAVELPSFLQCEAGLRACLRNTDGVLWDMSKTYRVRLEDIYRASSPDISTQWAPVVVNTLAGVVLLDWNVEELASASPTPVRNAVREIPLHDGGVEELLKRAQDYMFHGHHLLRTVYDAPQDAPARLADALADEWDTAQPRSLANGTAPALHCIEGSVNFDLATQLIMSLLSERA | not soluble
MLIGVISDTHIPDRASEIPEAVFDAFRDVELILHAGDLTSPDILTELETLAPVECVQGNMDRHYGIETPRSRLFEIESFRVGLIHGEVYPRGDTQQLRYLGLELGADVLISGHTHQPFIRELEDMVLLNPGSPTVPRLTDPSVMVLRIDGEKLDAEIIRTGAPVCRSLNFRR | not soluble
MAHHHHHHMNFLKRNATNICKGKVLGKHLNTSVQELTNLNKRKFSNIINLGKYGQRYQATHSGSIIGAKRFASGEAQKLSEVVKAEVQHEKSNYEAPDNIKKFLQTSGWKFEEQEGDVNMVLTKNVDGMKIIIDFQLVSPFQAEGENEAQAEMTDFSVTVEKPNKQGGITFYCTTLQNDEKFRYMIGNVKYYKNEEGKNSVSAYNGPEFEDLDDSLQTSLDEWLANLGVDSELCDFIDSCSIDKEQREYMSWLQNISNFIES | soluble
IEVAAIQGNVPRMGLDFNAQRRAVLANHARETLKLDEQVDLVIWPENSSDVNPFSDAQARAIIDGAVEHVQAPILVGTITVDEVGPRNTMQVFDPVEGAAEYHNKKFLQPFGEYMPFREFLRIFSPYVDSAGNFQPGDGTGVVEMNAANLGRAVTVGVMTCYEVIFDRAGRDAIANGAEFLTTPTNNATFGFTDMTYQQLAMSRMRAIEFDRAVVVAATSGVSAIVNPDGSISQNTRIFEAATLTESIPLKDTVTIAARVGFY | not soluble
MRPTRKCEFCGKTFVPRSGMQKYCSEECQAETKRLRKKRQQDLINGIEPIMDLQHQEYLTFSKAAILMGCTRQYIYKLVANGKLKASRLSSRMAFVRKADIEKMFEGHPYKRVVPASKSKLSKKAKAEKPTQNQEPTKGKEENDVLDYYSGEEVMSIYKVKKSWLYTSAKRNQIPMCRIAGKNYYSKRHIDEFFGTAVDLNSITEWVTADDVEEAFSMSKSALRAYTYRHKIPTKREYGRTYYSKEHLEELRRTDLMSDDSYYTTEQVQQIYGLTSANICHIVRVHHISKVKVGVKNLLLKTDVERAMAERAAKGL | not soluble
MKLLKKPAGLKKRKVISKRIKIEKKPSSEDEGSSDEEVPKLDGEGSLDGSEDEDDGTVTVEKGGVKKHKLDLEKLKQSDPEFFKFLQQEDADLLNMEDDGDDDEDDDEDDEDEEEEESDDDEDDEEDDDKTKIKKIRKPKIKSDNSGRLIVDSNVYSYLQQVLVLDDETSTPTNPSDVRMAVDVFVACVARVGADIEAPKYVINEQSIFEAVVRMCFQAMPDILKRLLKAKPEGDKVLFSKTAIKKYQTYVRTYLHAMIVFLNEVQTTEVLIATIKAMTRLVDLYAHFSRMSKLLIKAVVRIWSRKTLECRLPAFVCMNLLVKNYPQHFVPLYKTAYVAFVANSKIVTNETWPLLQFMHRTFAELTILNPEQAYKYAFVYIRQTAVHLRNAMISKGRKDLIFSIYNWQMMQCMYMWVRVIAKAHSVNGAEQIGELVYPLIQVIVGIFKLCNAPTFLPLRLHCCQLLIQLQASCTNYIPILQVSCDCLEELARELKSKPKPVKGAVKLPDIECTLKCSSQFSDLPQWRKVISEHVFRTMMQSAHLLASQAAFPDVVLPINHRISAILETMKNGDHAHLFRGFQTKLKEHSRFVLDVLARKSVDINDEMQVRAVRFDLNNHDSPIKTFYRQWEKVWKMKERSAVENSKKDDKKKKKEEEAAAAKKRKPNETVEDEDDVKPEVSKAKRKRIKIGAAAKKADASVPDQFADMSMWSDED | soluble
MGSDKIHHHHHHMIMKVVVKVGSNLLVGSSGLRKSYIAELCREVARLKSQGHEISIITSGARAAGFTYLGKGKRTQDLHIKQALCAVGQVQLMKVYENAFDFYGIKIAQILLTRDTFSNRKRYLNLRNTLIGLSEFDVVPIVNENDTVATEEITLGDNDTLAAMFSIAWDADFLVLFTTVDGVIDENGKLVERFDESVKLKDMGKSSWGTGGIRSKIESALMASRCGVKATICSGNDVSNLTRFVKGEPVGTVFEPQGRLKAKKAWIAFLSEPAGKIYVNKGAEEALKSGNSLLPVGVTGVEGTFDVGDVVEIVNEEGELVGRGIVNYSSSDLEKIAGHKSSDLKKILGYEGNKVVVHIDNMWVA | not soluble
TAGFSLNVLTINTHKGFTAFNRRFILPELRDAVRSVSADIVCLQEVMGAHEVHPLHIENWPDTTHYEFLADTMWSDYAYGRNAVYPEGHHGNAVLSRFPIEYYENRDISVGNGEKRGLLYCRIVPPRSGITIHVICVHLGLRADQRQAQLTMLAEWVNTLPAGEPVVVAGDFNDWRQQANQPLKAQAGLEEIFTRARGRPARTFPVSFPLLRLDRIYVKNAHASRPKALALKQWRHLSDHAPLSVEIHL | not soluble
MGSDKIHHHHHHMPALAHRRSDIASGTRTTALTDHRFRGRITSFTRQVPKLMNKQQGNTPVHIWRVDFEGMEMRTTSSDGIHVWIARDDVMEALQIPDPGYALSFVTPEDQAALSSGTDVPDEEDEPDGLPMINEIAVYEIMARFPTPPTGRFKPWLLRLRHLFFELMTRDDEATFLLQ | not soluble
GMALTPDQMPDRAEVVFTCNGKAVGKMRNELDVAMVKPFEERFALATDEGAFHGGDASAPPPLALFIAGLTGCVMTQIRAFAKRLKVTVTDLDVECRVVWDWAKAGPVYETGPKSFEIDIILHSPDPIEAQQALIEAAKKGCFLEQTLGQANTIRHRLKVGDTFIDA | soluble
MAEQQPSKEEKKEDKKDEKEEELPAPSVQQSIRQLPKIQITDDDKGEQLPECTEGEWDASDEPFSAELLNVKNAPNKVSVFSGPYRSKETIEKIKKFRAAMPPVIPIIDERPDKLAQMMSRIFSEIIDGRDLSKIKVFFFIK | not soluble
TSSLHPTRGKLLKRFAQIGPYIREQQCQESQFFFDCLAVCVNKKVTPEKREFWGWWMELERNGEQLIYYYQVGLFDKNGDWVNQVISKKDVIESIHETLIRFHDFLQAAVSELEMTLVPDEKMSNFPLPL | soluble
MSLSPEHKRTALVTGANSGLGKAIVTALAADGLRVGLVARDRGRGEAALADVRAATGNQDLHLFVADLADQESIRALAQDVRARFDRLHLLINNAGTAFPERRLSPQGIERAFAINHLGPFLLTNLLLDLIKASAPARIVNVGTRIDAAIDFDDLNWDKRPYGMMKGYAQSKLGNLHFTFELARRLEGSGVTVNCVFPGVFKSNLGGTDGAQGLFWKLLAKLGGWAIPKPESAAQRVLYLANAPELESVSGQYYANRKTIPAPAQALDAEANRRLWEISERMTGLTQSQTVGDQAATEGHHHHHH | soluble
MEKKHIYLFCSAGMSTSLLVSKMRAQAEKYEVPVIIEAFPETLAGEKGQNADVVLLGPQIAYMLPEIQRLLPNKPVEVIDSLLYGKVDGLGVLKAAVAAIKKAAAN | soluble
MSLKAWQLENFGLDNLKQVELEKPEIAEDQILIKVNSVSLNYRDTAIVEGIYTPELLKFPFIPVSDASGIVVEIGSKVTKFKKGDRVTSHMFTKWLDGKPKSDEQSHALGATVDGGLSEYMVLNENAAVFSPETLTDNQSSTLPVAAFVNWFSLVEYGNIKAGDKVLVQGTGGVSIFAIQIASALGAEVIATSSSDEKLEKAKELGASKVINYKTHPDWEKEVQKLTNGKGVEHIVEVVGGSSIAKSIDALAFQGHIYVIGFLENMEANVNLFALLAKQARIQGVNLGHHRAFEDFNKALDQINIDPVIDTVYSFDQAKEAYEHQMKGAFGKIVIDFNEGHHHHHH | not soluble
MTTSIQRRISIVIPCLNDAVLLEQCLSSIVAQTLQPEEVIVVDNGSTDNSVEVANRMGARVVHEPLQGITWASAAGYNSARGDLIVRFDADCVIPPDHLSQVNAIWNRTEETPGRTIVALTGTGSFDIPGRMGEWLALCYLGAYRWSTKQALGHYPIFGSNSVISRQWWEDVKDQITLSETFVHEDMYFSFFVRPHETVWFEKNLKLIMHPRALMGVRQSFIRLVRGFYTIKIAWKREPVHQRLESRRDWTLEHHHHHH | not soluble
MGSDKIHHHHHHMVRHKRDIQRDTVPEWEDLRQLAHEIKRYNVTHLDELLLRFEENARRNGVIVHWAKDAKEHNEILYGILRDHGVKKFVKSKSMLTEECHLNEYLIEKGINVIETDLGERILQLMEEPPSHIVMPAIHIKREAVSDLFHDKLGTEKGNYDPTYLTRAARKSLREDFISADAAMTGGNFAVASTGEVVVCTNEGNADMGMACQKLNICSFGLEKLVPDLDAVGVFTRLLARSGTGQPSTTYTAHYRKPHEGGELHYIIVDNGRTDIIENEEHVKTLNCIRCGACMNTCPVYRRSGGYSYTYFIPGPIGINLGMLKDPRRYSDNVSACSLCLSCSNVCPVKIDLGEQIYRWRQDLDHLGRASQEKKLMSAGMKYLMDSPWRFNTALKMAPMANSLPRFLLYNGLNAWGKGRELPRFASTSFNNWWKKNIKK | not soluble
MAQQLLMPKATAVWLVDNTALSFDQIAQFCKLHPLEVKAIADGESAQGIKGLDPIATGQLSRDEIARAEGNPNHKLKLSEPKVRVPDSKRKGPRYTPVSKRQDRPNAILWLVRNHPELKDAQISRLVGTTKATIEQIRERTHWNSANLTPMDPVTLGLCSQIDLDLEVERASKGRPLPSAAETGATLESAQETEKLDYGQDREEEKEIDADAVFAKLKSLKSDRKDDEEDDY | not soluble
